This data set deals with the molecule itself. The experiment in a line: cross-linking.

B1: CorA double cysteine mutant V183C/A8C (natural protein, Thermotoga maritima)
chain: MEEKRLSCKKGLPPGTLVYTGKYREDFEIEVMNYSIEEFREFKTTDVESVLPFRDSSTPTWINITGIHRTDVVQRVGEFFGIHPLVLEDILNVHQRPKVEFFENYVFIVLKMFTYDKNLHELESEQVSLILTKNCVLMFQEKIGDVFDPVRERIRYNRGIIRKKRADYLLYSLIDALVDDYFCLLEKIDDEIDVLEEEVLERPEKETVQRTHQLKRNLVELRKTIWPLREVLSSLYRDVPPLIEKETVPYFRDVYDHTIQIADTVETFRDIVSGLLDVYLSSVSNKTNEVMKVLTIIATIFMPLTFIAGIYGMNFEYMPELRWKWGYPVVLAVMGVIAVIMVVYFKKKKWL
Turning to B1, the “stoichiometry N” value came out at 5.

One may read the stoichiometry N as the number of molecules, sites or subunits per partner or assembly.

(Values after PMC4752722 (Cell, 2016).)
